Experimental data from the supplement of paper PMC9170038.

System: MS2 coat protein
Experiment: apparent KD of MS2 coat protein; designed switch direction (-1 OFF switch, 1 ON switch): 1; higher = weaker reporter binding
Outline: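 Normalised cluster fluorescence was curve-fitted, and each design's median over clusters is its apparent KD. Before this, SNAP-549-labelled MS2 coat protein was titrated from 0.7 or 1.5 nM, doubling to 3 µM, over RNA switches transcribed on Illumina chips by stalled E. coli RNA polymerase. Titrations had no input, 200 uM small-molecule ligand, or an oligonucleotide input, and steps lasted 0.8–1.5 h (lowest) to 10–20 min (highest).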

[1] = Eterna round: R95, input ligand: FMN 200 uM
[2] = Eterna round: R95, input ligand: microRNA oligo, concentration not stated
[3] = Eterna round: R95, input ligand: none
[4] = input ligand: microRNA oligo, concentration not stated

| Sequence | apparent KD of MS2 coat protein [1] [nM] | apparent KD of MS2 coat protein [2] [nM] | apparent KD of MS2 coat protein [3] [nM] | apparent KD of MS2 coat protein [4] [nM] | apparent KD of MS2 coat protein (input ligand: FMN 200 uM) [nM] | apparent KD of MS2 coat protein (input ligand: none) [nM] |
| --- | --- | --- | --- | --- | --- | --- |
| UGUAAACAUGAGGAUCACCCAUGUAAUAUAAUGGGAGGAUAUCUGAAUUAAUUAAAUUAAGGAGAAGGCCUAAUGU [Mat - Same State 1 - Mod of Eli - D47] (puzzle: Same State 1) | 53.2 | 288 | 482 | – | – | – |
| UGUCCAGCCUGAGCUGGACAAAAGCAUGUACAUGAGGAUCACCCAUGUUCAUGUACAAGCUUUUUGCUCGUCUUAGA [salish99_208a_r3_064] (puzzle: Sensor for hsa-mir-208a) | 480 | 15.8 | 587 | – | – | – |
| UGUUAGUAGACAGGAUAUUGAAUGUUAAGUAUUAACAUGAGGAUCACCCAUGUAUUAGAUUGGUACAAGAAGGGUCAAGUUUGU [JR_SSNG2_Sub012] (Eterna round: R96, puzzle: Same State NG 2) | – | – | – | 242 | – | – |
| UGUUGUAUUACAGGAUAUCUAGUAUUGUUAUUUAGAGAAGGGUAUUCACAUGAGGAUCACCCAUGUAUAUACGAGGAAGUUGUG [JMF's solution 40] (Eterna round: R96, puzzle: Same State NG 1) | – | – | – | 28.8 | – | – |
| UGUUGUAUUACAGGAUAUCUAUGAUUUUUGUUUAGAGAAGGGUAUUCACAUGAGGAUCACCCAUGUAUAUACGAGGAAGUUGUG [JMF's solution 66] (Eterna round: R96, puzzle: Same State NG 1) | – | – | – | 42.4 | – | – |
| UGUUGUAUUACAGGAUAUCUAUUAAUUUUAUUUAGAGAAGGGUAUUCACAUGAGGAUCACCCAUGUAUAUACGAGGAAGUUGUG [JMF's solution 13] (Eterna round: R96, puzzle: Same State NG 1) | – | – | – | 38.7 | – | – |
| UGUUGUAUUACAGGAUAUCUAUUAGUUUCAUUUAGAGAAGGGUAUUCACAUGAGGAUCACCCAUGUAUAUACGAGGAAGUUGUG [JMF's solution 95] (Eterna round: R96, puzzle: Same State NG 1) | – | – | – | 44.4 | 55 | 59.6 |
| UGUUGUAUUACAGGAUAUCUAUUAUUUUUAUUUAGAGAAGGGUAUUCACAUGAGGAUCACCCAUGUAUAUACGAGGAAGUUGUG [JMF's solution 6] (Eterna round: R96, puzzle: Same State NG 1) | – | – | – | 42.7 | – | – |
| UGUUGUUACGCAGGAUAUGGUCACAUGAGGAUCACCCAUGUAUUGUCGAUGCUAUGUGGAUUUGAUCAGAAGGGCGGGUUAACA [SameState NG2 #100] (Eterna round: R96, puzzle: Same State NG 2) | – | – | – | 88.9 | 63.8 | 103 |
| UGUUUGUUGUGAGGAUAUACGUACACCCUACAUGAGGAUCACCCAUGUUGUUCCCUUGAUUGUUGGUAGAAGGCACUUGGUUAU [JR_SSNG2_Sub049] (Eterna round: R96, puzzle: Same State NG 2) | – | – | – | 122 | 216 | 118 |
| UUAAUAAAGUAAGGAUAUACAUGAGGAUCUCUCGUAGAAGGUACUAUACAUGAGGAUCACCCAUGUGCCGGUCCGUAGACUGGA [Mat - Same State NG 1 - JL mod - D7] (Eterna round: R96, puzzle: Same State NG 1) | – | – | – | 124 | – | – |
| UUAAUGAAGUAAGGAUAUACAUGAGGAUCACUCGUAGAAGGUACUAAACAUGAGGAUCACCCAUGUACCGGUCCGUAGACUGGA [JL SSNG1 1.01] (Eterna round: R96, puzzle: Same State NG 1) | – | – | – | 157 | 472 | 572 |
| UUAAUGAUGAAAGGAUAUACAUGAGGAAUUCUCGUAGAAGGUUCAUGACAUGAGGAUCACCCAUGUAUCGCUCCGUAGAGCGUA [JL SSNG1 1.13] (Eterna round: R96, puzzle: Same State NG 1) | – | – | – | 38.4 | 713 | 82.6 |
| UUAAUGAUGAUAGGAUAUACAUGAGGAAUCCUCGUAGAAGGAUCAUGACAUGAGGAUCACCCAUGUAACGCUCAGAAGAGCGUA [Mat - Same State NG 1 - JL mod - D42] (Eterna round: R96, puzzle: Same State NG 1) | – | – | – | 37 | 205 | 78.3 |
| UUAAUGAUGUAAGGAUAUACAUGAGGAUUUCUCGUAGAAGGUACAAGACAUGAGGAUCACCCAUGUAUCGCUCCGUAGAGCGUA [JL SSNG1 1.10] (Eterna round: R96, puzzle: Same State NG 1) | – | – | – | 101 | 652 | 287 |
| UUAAUUAAUUAAUUAUACAUGAGGAUCACCCAUGUAAGUGAUCAGGAUAUCAGCUCGAAUAGAGCUGAGAAGGGAUCCAUGUAA [SSNG3/14-A1] (Eterna round: R96, puzzle: Same State NG 3) | – | – | – | 72.7 | – | – |

| Sequence | apparent KD of MS2 coat protein [1] [nM] | apparent KD of MS2 coat protein [2] [nM] | apparent KD of MS2 coat protein [3] [nM] | apparent KD of MS2 coat protein [4] [nM] | apparent KD of MS2 coat protein (input ligand: FMN 200 uM) [nM] | apparent KD of MS2 coat protein (input ligand: none) [nM] |
| --- | --- | --- | --- | --- | --- | --- |
| UUAAUUUACUGAGGAUAUCGUGUCGACUGAGUUGACAUGAGGAUCACCCAUGUGAGAAGUGGUAUCGAGAAGGCAGUUUUCUUA [JR_SSNG2_Sub025] (Eterna round: R96, puzzle: Same State NG 2) | – | – | – | 82 | 17.8 | 102 |
| UUAGAAUACGCAGGAUAUCGAUGAUUGAUAGUACGAGAAGGGCGAACAUGAGGAUCACCCAUGUAUAUUAAUUUGAGUUUGAAU [JR_SSNG1_Sub076] (Eterna round: R96, puzzle: Same State NG 1) | – | – | – | 120 | 69.4 | 214 |
| UUAGUCAUGUAAGGAUAUGCAGCCGAAACGGCUGCAGAAGGUACUAUAAUUACAUGAGGAUCACCCAUGUUAUAAAAUAAAUAU [Mat - Same State NG 1 - JL mod - D63] (Eterna round: R96, puzzle: Same State NG 1) | – | – | – | 25.6 | 22.9 | 48 |
| UUAUAACAUGAGGAUCACCCAUGUCAACAAAGUCGAGGAUAUGGGCAAUUAUUAUUAGAACCAGAAGGCGAAAAUU [Mat - Same State 1 - Mod of UCT - D29] (puzzle: Same State 1) | 52.1 | 227 | 587 | – | – | – |
| UUAUCUAUCCGAGGAUAUCCAUAUAAUUUACAUGAGGAUCACCCAUGUUAUUGGGAGUUUUUUUAGGAGAAGGCGGAUGUAGAU [JR_SSNG2_Sub052] (Eterna round: R96, puzzle: Same State NG 2) | – | – | – | 79.2 | 82.5 | 107 |
| UUCCCAUCGGGAGGAUAUGGAACCUUAUUGGUUCUAGAAGGUCCAACAUGAGGAUCACCCAUGUGGGAGUGGUCUAAUGACCAC [SS NG10LRO02] (Eterna round: R96, puzzle: Same State NG 1) | – | – | – | 141 | 117 | 159 |
| UUCGAGUAGCAAGGAUAUCUUAUUUAGAUUUUAAGAGAAGGUGCUUAUUAGAAACAUGAGGAUCACCCAUGUAUUACUUCUUAU [JR_SSNG1_Sub066] (Eterna round: R96, puzzle: Same State NG 1) | – | – | – | 13.8 | 14.1 | 20.1 |
| UUCUUACAUGAGGAUCACCCAUGUGUUGUCGUGGGAGGAUAUCCUGGUUCGGUGGCGUUGGGAGAAGGCCUAUGUU [× ×•×ª×• ×ž×“×™× ×” × ×—×ª-19] (puzzle: Same State 1) | 476 | 134 | 376 | – | – | – |
| UUGAAGAAUUAAGGAUAUCGAGUCGUCAAAUUAAACAUGAGGAUCACCCAUGUGGGUUGCGGUAUCGAGAAGGUAAAUUACUAG [JL JR Sub099 mod 4] (Eterna round: R96, puzzle: Same State NG 2) | – | – | – | 15.2 | 11.9 | 32.3 |
| UUGAUGAACUGAGGAUAUCGAGUCGUCUCAUUACACAUGAGGAUCACCCAUGUGGGUUGUGGUAUCGAGAAGGCAGAAUACUCA [JR_SSNG2_Sub033] (Eterna round: R96, puzzle: Same State NG 2) | – | – | – | 28.7 | 25.1 | 32.8 |
| UUGAUGAACUGAGGAUAUCGAGUCGUCUGAUUAUACAUGAGGAUCACCCAUGUGGGUUGUGGUAUCGAGAAGGCAGAUUACUUA [JR_SSNG2_Sub032] (Eterna round: R96, puzzle: Same State NG 2) | – | – | – | 117 | 82.8 | 260 |
| UUGAUGUACUGAGGAUAUCGUGUCGUCUGAUUUGACAUGAGGAUCACCCAUGUGGGAAGUGGUAUCGAGAAGGCAGUUUUCUUA [JR_SSNG2_Sub028] (Eterna round: R96, puzzle: Same State NG 2) | – | – | – | 351 | 151 | 745 |
| UUGCGCUGUCGAGAGGAUAUGCGGUGAUGGACAUGAGGAUCACCCAUGUUAGCGAUAGCAUUACGGUAGAAGGCUCUUCAGCUGC [salish99_ss2_r3_095] (puzzle: Same State 2) | 16.2 | 21.8 | 26.2 | – | – | – |
| UUGCGGGCUUGAGGAUAUUGAGUACAUAUGUUUAACAUGAGGAUCACCCAUGUGGGUUGCGGUAUCGAGAAGGUAACUUCCUGC [salish99_SSNG2_r04_811] (Eterna round: R96, puzzle: Same State NG 2) | – | – | – | 65.3 | 100 | 91.1 |
| UUGCUCGUGUAAGGAUAUGCAGCCGUUUCGGCUGCAGAAGGUACUAUAAUACAUGAGGAUCACCCAUGUCUCUAUUAUUUAGUG [salish99_SSNG1_r04_925] (Eterna round: R96, puzzle: Same State NG 1) | – | – | – | 38.3 | 43 | 49.4 |
